Experimental data published in US20240228586.

Biological target: M-L3-IL12 (masked mouse IL-12 whose linker contains 3 repeats of LSGRSDNH) (UniProt Q60837)
Sequence (Q60837 whole entry, looked up): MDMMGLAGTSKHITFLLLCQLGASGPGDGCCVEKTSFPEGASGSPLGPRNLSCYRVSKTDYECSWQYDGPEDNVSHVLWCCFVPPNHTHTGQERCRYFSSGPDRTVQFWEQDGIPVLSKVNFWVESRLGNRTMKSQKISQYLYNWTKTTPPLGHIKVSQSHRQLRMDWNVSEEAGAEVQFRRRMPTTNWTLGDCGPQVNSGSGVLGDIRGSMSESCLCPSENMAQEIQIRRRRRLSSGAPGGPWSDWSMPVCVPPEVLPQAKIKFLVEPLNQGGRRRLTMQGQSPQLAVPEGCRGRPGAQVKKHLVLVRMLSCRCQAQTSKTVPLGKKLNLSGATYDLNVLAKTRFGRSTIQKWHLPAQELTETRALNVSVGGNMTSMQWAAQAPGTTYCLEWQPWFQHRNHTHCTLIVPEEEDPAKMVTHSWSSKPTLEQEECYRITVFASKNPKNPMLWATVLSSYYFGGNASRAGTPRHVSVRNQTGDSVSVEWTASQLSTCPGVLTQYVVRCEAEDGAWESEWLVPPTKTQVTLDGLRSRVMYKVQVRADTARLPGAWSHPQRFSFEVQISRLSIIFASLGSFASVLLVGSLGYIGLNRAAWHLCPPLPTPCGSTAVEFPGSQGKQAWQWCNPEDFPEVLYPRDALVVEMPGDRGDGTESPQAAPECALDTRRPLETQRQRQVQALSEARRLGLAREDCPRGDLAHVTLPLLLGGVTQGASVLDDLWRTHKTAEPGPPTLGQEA

## recombinant human urokinase plasminogen activator
  in vitro cleavage, 30 min at 37° C., SDS-PAGE: Decrease of molecular weight from ˜105 kDa to ˜60 kDa indicates proteolytic cleavage of IL12Rβ1-VP-IL12 and IL12Rβ1-LS-IL12
